# Measured values reported in the nanobody polyreactivity screen of Harvey et al. (2022).
# Assay: yeast display, Sf9 membrane polyspecificity reagent, FACS + sequencing; frameworks hold sequencing errors
# Method in brief: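 Genes from sorted yeast were amplified by colony PCR, read by MiSeq 2 × 250 sequencing and filtered on CDR length. These cells carried a synthetic nanobody library in Saccharomyces cerevisiae BJ5465 and were sorted by FACS into low and high (top ~1%) gates on anti-HA and streptavidin fluorescence. Polyreactivity is labelled according to the gate of origin.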
row,Sequence,polyreactivity (PSR sort gate)
1,QVQLVESGGGLVQAGGSLRLSCAASGSILGSNVMGWYRQAPGKERELVAAITSGDSTNYADSVKGRFTISRDNAKNTVYLQMNSLKPEDTAVYYCAKPYSVAPAAVLNWYLGYEYWGQGTQVTVSS,low polyreactivity
2,QVQLVESGGGLVQAGGSLRLSCAASGSILGYYAMGWYRQEPGKERELVAAISGRGGSTYYADSVKGRFTISRDNAKNSVYLHMNSLKPEDTAVYYCAVVWGSYYWGQGGGEYWGQGTQVTVSS,high polyreactivity
3,QVQLVESGGGLVQAGGSLRLSCAASGSILHLYAMGWYRQAPGKERELVARINSGGTTNYADSVKGRFTISRDNAKNTVYLQMNSLKPEDTAVYYCAARFTPYITSDVGHYDYWGQGTQVTVSS,low polyreactivity
4,QVQLVESGGGLVQAGGSLRLSCAASGSILKFNAMGWNRQAPGKERELVAAITRGTNTYYADSVKGRFTISRDNAKNTVYLQMNTLKPEDTAVYYCAARLPYNAIGYYYWGQGTQVTVSS,low polyreactivity
5,QVQLVESGGGLVQAGGSLRLSCAASGSILKFNAMGWYRQAPGKERELVAAITRGTNTYYADSVKGRFTISRDNANNTFFLQMNSLKPEDTAVYYCAARLPYNAIGYYYWGQGTQVTVSS,low polyreactivity
6,QVQLVESGGGLVQAGGSLRLSCAASGSILLRNAMGWYRQAPGKERELVAAISRDGGSTYADSVKGRFTISRDNAKNTVYLQMNSLKPEDTAVYYCAKRSYWYDYWGQGTQVTVSS,high polyreactivity
7,QVQLVESGGGLVQAGGSLRLSCAASGSILLRYAMGWYRQAPGKERELVAAISYDGGGTYYADSVKGRFTISRDNAKNTVYLQMNSLKPEDTAVYYCAADGYSSSGTAYDYWGQGTQVTVSS,low polyreactivity
8,QVQLVESGGGLVQAGGSLRLSCAASGSILLYYVMGWYRQAPGKERELVAGISSSGRTYYADSVKGRFTISRDNAKNTVYLQMNSLKPEDTAVYYSAKKYWRGDVRVGYWGQGTQVTVSS,high polyreactivity
9,QVQLVESGGGLVQAGGSLRLSCAASGSILPGNAMGWYRQAPGKEREFVAAISKSGGRTNYADSVKGRFTISRDNAKNTVYLQMNSLKPEDTAVYYCAARRSTGYGKSNLYNYWGQGTQVTVSS,high polyreactivity
10,QVQLVESGGGLVQAGGSLRLSCAASGSILPYYAMGWYRQAQGKERELLATITDGTDTYYADSVKGRFTISRDNAKNTVYLPMNSLKPEDTAVYYCNADGYVYYLHEDYWGQGTQVTVSS,low polyreactivity
11,QVQLVESGGGLVQAGGSLRLSCAASGSILQHYAMGWYRQAPGKERELVASISWTGGSTYYADSVKGRFTISRDNAKNTVYLQMNSLKPEDTAVYYCAARRYRYYSRGSWGQGTQVTVSS,high polyreactivity
12,QVQLVESGGGLVQAGGSLRLSCAASGSILQPIYAMGWYRQAPGKERELVAAISASGGSTYYADSVKGRFTISRDNAKNTVYLQMNSLKPEDTAVYYCNKVGYYASVLGYDYWGQGTQVTVSS,high polyreactivity
13,QVQLVESGGGLVQAGGSLRLSCAASGSILRKYAMGWYRQAPGKERELVAAISWSGGSTYYADSVKGRFTISRDNAKNTVYVQMNSLKPEDTAVYYCNRDGLSRPYYYWGQGTQVTVSS,high polyreactivity
14,QVQLVESGGGLVQAGGSLRLSCAASGSILRSNAMGWYRQAPGKERELVAAITFNGGSTYADSVKGRFTISRDNAKNTVYLQMNSLKPEDTAVYYCATGDGPSLFDYWGQGTQVTVSS,low polyreactivity
15,QVQLVESGGGLVQAGGSLRLSCAASGSILRYYAKGWYRQAPGKERELVASINWSGGSTYYADSVKGRFTISRDNAKNTVYLQMNSLKPEDTAVYYCAARRRSAEYNYWGQGTQVTVSS,high polyreactivity
16,QVQLVESGGGLVQAGGSLRLSCAASGSILSAYDMGLYRKAPGKDRELVAAIHSSGGSTYYADSVKGRFTISRDNAKNTVYLQMNSLKPEDTAVYYCAATSLAGYYQFDYWGQGTQVTVSS,low polyreactivity

row,Sequence,polyreactivity (PSR sort gate)
1,QVQLVESGGGLVQAGGSLRLSCAASGSILSFNAMGWDRQAPGNERELVAAISRGGSTNYADSVKGRFTISRDNAKNTVYLQMNSLKPEDTAVYYCAAVQYRYSTRWARRAYDYWGQGTQVTVSS,high polyreactivity
2,QVQLVESGGGLVQAGGSLRLSCAASGSILSPYAMGWYRQAPGKERELVAAISRSGDRTYYADSVKGRFTISRDNAKNTVYLQMNSLKPEDTAVYYCAAEYSWPWDYYYWGQGTQVTVSS,high polyreactivity
3,QVQLVESGGGLVQAGGSLRLSCAASGSILTDNAMGWYRQAPGKERELVASITGSGGSTYYADSVKGRFTISRDNAKNSVYLQMNSLKRVDTAVYYCAASYRLRYGYWGQGTQVTVSS,high polyreactivity
4,QVQLVESGGGLVQAGGSLRLSCAASGSILTENAMGWYRQAPGKERELVAAISRSGGRTYYADSVKGRFTISRDNAKNTVYLQMNSLKPEDTAVYYCAAEYWTVGYYYSLESDYWGQGTQVTVSS,low polyreactivity
5,QVQLVESGGGLVQAGGSLRLSCAASGSILTFYAMGWYRQAPGKERELVAAITWRGGSTYYAYSVKGRFTISRDNAKNTVYLQMNSLKPEDTAVYYCAAEQVGYYLNWRDYWGQGTQVTVSS,high polyreactivity
6,QVQLVESGGGLVQAGGSLRLSCAASGSILTPNAMGWYRQAPGKERELVATISKGGGRTYYADSVKGRFTISRDNAKNTVYLQMNSLKPEDTAVYYCAADARRNSPGNYWGQGTQVTVSS,high polyreactivity
7,QVQLVESGGGLVQAGGSLRLSCAASGSILTPYAMGWYRQAPGKERELVAAISWGDGSTYYADSVKGRFTISRDNAKNTVYLQMNSLKPEDTAVYYCAAVSYYGVDQYRITVYTYEYWGQGTQVTVSS,low polyreactivity
8,QVQLVESGGGLVQAGGSLRLSCAASGSILTYYAMGWYRQAPGKERELVAAINNIGGSTYYADSVKGRFTISRDNAKNTVYLQMNSLKPEDTAVYYCAKYYAWPYDYWGQGTQVTVSS,low polyreactivity
9,QVQLVESGGGLVQAGGSLRLSCAASGSILVNAIGWYRQAPGKEREFVAAISSGGSTKYADSVKGRFTMSRDNATNTDYLLMNSLKPEDTEVYYCAARVVTSRLSGGTTHPFILYYWGQGTQVTVSS,high polyreactivity
10,QVQLVESGGGLVQAGGSLRLSCAASGSILVPNAMGWYRQAPGKERELVAGISANGGSTYYADSVKGRFTISRDNANNTVYLQMNSLKPEDTAVYYCNARLYWDWYGDDYWVQGTQVTVSS,low polyreactivity
11,QVQLVESGGGLVQAGGSLRLSCAASGSILWYNGLGWYRQAPGKEMELVAAITSGGSTNYADSVKGRFTISRDNAKNTVYLQMNSLKQEDTAVYYCATRHSKYGYEYDYWGQGTQVTVSS,low polyreactivity
12,QVQLVESGGGLVQAGGSLRLSCAASGSILWYYAMGWDRQAPGKERELVATITSGGSTYYADSVKGRFTISRDNAKNSVYLQMNSLKPEDTAVYYCNADLAVDEYDYWGQGTQVTVSS,low polyreactivity
13,QVQLVESGGGLVQAGGSLRLSCAASGSILYGNAMGWYRQAPGKERELVAAISWRGGRTYYADSVKGRFTISRDNAKNTVYLQMNSLKPEDTAVYYCAAQIGLVSGRDYWGQGTQVTVSS,high polyreactivity
14,QVQLVESGGGLVQAGGSLRLSCAASGSILYGNDMGWYRQAPGKERELVANITSSDSTYYADSVKGRFTISRDNAKNTVYLQMNSLKPEDTAVYYCASDDVGWGYYVYSYPYDYWGQGTQVNVSS,low polyreactivity
15,QVQLVESGGGLVQAGGSLRLSCAASGSILYLNAMGWYRQAPGKERELVASISSSGGNTYYADSVTGRFTISRDNAKNTVYFQMNSLKPEDTAVYYCNTRWVHRDWYDYWGQGTQVTVSS,high polyreactivity
16,QVQLVESGGGLVQAGGSLRLSCAASGSILYLNAMGWYRQAPGKERELVATISNGGSTNYADSVKGRFTISRDNAKNTVYLQMNSLKPEDTAVYYCAAASGGTVVGEGDYWGQGTQVTVSS,low polyreactivity
